Laboratory results from publication PMC4617613 (Nature, 2015).

B1: PhnI (natural protein)
chain: MYVAVKGGEKAIDAAHALQESRRRGDTDLPELSVAQIEQQLNLAVDRVMTEGGIADRELAALALKQASGDNVEAIFLLRAYRTTLAKLAVSEPLDTTGMRLERRISAVYKDIPGGQLLGPTYDYTHRLLDFTLLANGEAPTLTTADSEQQPSPHVFSLLARQGLAKFEEDSGAQPDDITRTPPVYPCSRSSRLQQLMRGDEGYLLALAYSTQRGYGRNHPFAGEIRSGYIDVSIVPEELGFAVNVGELLMTECEMVNGFIDPPGEPPHFTRGYGLVFGMSERKAMAMALVDRALQAPEYGEHATGPAQDEEFVLAHADNVEAAGFVSHLKLPHYVDFQAELELLKRLQQEQNHG

Key:
PhnI = biological target: B1; assay: crystal structure
crystal structure = biological target: the molecule itself; assay: crystal structure

Row | Binder | binding result (PhnI) | stoichiometry N (crystal structure)
1 | PhnG (natural protein) MHADTATRQHWMSVLAHSQPAELAARLNALNITADYEVIRAAETGLVQIQARMGGTGERFFAGDATLTRAAVRLTDGTLGYSWVQGRDKQHAERCALIDALMQQSRHFQNLSETLIAPLDADRMARIAARQAEVNASRVDFFTMVRGDNA | binds | –
2 | B1 | – | 2
3 | PhnJ (natural protein) MANLSGYNFAYLDEQTKRMIRRAILKAVAIPGYQVPFGGREMPMPYGWGTGGIQLTASVIGESDVLKVIDQGADDTTNAVSIRNFFKRVTGVNTTERTDDATVIQTRHRIPETPLTEDQIIIFQVPIPEPLRFIEPRETETRTMHALEEYGVMQVKLYEDIARFGHIATTYAYPVKVNGRYVMDPSPIPKFDNPKMDMMPALQLFGAGREKRIYAVPPFTRVESLDFDDHPFTVQQWDEPCAICGSTHSYLDEVVLDDAGNRMFVCSDTDYCRQQSEAKNQ | binds | –
